{"source": "paper PMC6978714", "about": "“Protective Allele for Multiple Sclerosis HLA-DRB1*01:01 Provides Kinetic Discrimination of Myelin and Exogenous Antigenic Peptides” (Frontiers in Immunology, 2020)", "key": {"HLA-DRB1*15:01 [1]": {"target": "T1, HLA-DRB1*15:01 (Homo sapiens, UniProt P01903+P01911)", "assay": "Peptide binding ELISA (L243 capture, streptavidin-peroxidase)", "conditions": "thioredoxin-fused biotinylated MBP fragments 750 nM, HLA-DR 150 nM, overnight, 37°C", "method": "DR/peptide complexes were then captured on the ELISA plate with immobilized L243 mAb (5 μg/ml in PBS) and blocked with 1% milk in PBS. HLA-DR-bound biotinylated peptide was quantitated with streptavidin-peroxidase (50 μl in PBST), using 3,3′,5,5′-tetramethylbenzidine (50 μl) as a substrate and stopping with 10% phosphoric acid (50 μl). ELISA was performed using standard protocol (https://www.abcam.com/protocols/sandwich-elisa-protocol)."}, "HLA-DRB1*01:01 [2]": {"target": "T2, HLA-DRB1*01:01 (Homo sapiens, UniProt P01903+P01911, A100R/D57E/F55L/F60I/F76Y/I96L/L162R/M171V/P40L/Q125E/R42F/V115G/Y59C)", "assay": "Peptide binding ELISA (L243 capture, streptavidin-peroxidase)", "conditions": "thioredoxin-fused biotinylated MBP fragments 750 nM, HLA-DR 150 nM, overnight, 37°C"}, "HLA-DRB1*15:01 [3]": {"target": "T1, HLA-DRB1*15:01", "assay": "18 h competition assay with Trx-[pp65]bio", "assay_type": "binding", "conditions": "HLA-DRB1*15:01 150 nM, Trx-[pp65]bio 150 nM, competitor 7.8 nM-1 μM", "method": "In a competition assay, biotinylated thioredoxin-fused HA and pp65 peptides (150 nM) were incubated with HLA-DR in the presence of HA, pp65, MBP or chimeric peptides (1,000, 500, 250, 125, 62.5, 31.2, 15.6, and 7.8 nM) for 18 h. Whole procedure was the same as described above."}, "HLA-DRB1*15:01 [4]": {"target": "T1, HLA-DRB1*15:01", "assay": "Real-time ELISA kinetics of peptide loading (CLIP exchange) with or without HLA-DM", "assay_type": "binding", "conditions": "thioredoxin-fused peptides 150 nM, HLA-DR 150 nM, HLA-DM 150 nM", "method": "A real-time ELISA assay was used to assess kinetics of peptide exchange on HLA-DR, catalyzed by HLA-DM. The linker connecting the CLIP peptide to the N-terminus of the HLA-DR β chain was cut with thrombin (1 h, 20 U/mg, at room temperature). DR-CLIP complexes (150 nM) were incubated with or without HLA-DM (150 nM, which was estimated as minimal concentration for maximal rate, see Figure S1) in the presence of biotinylated either synthetic or thioredoxin-fused HA, pp65, MBP, and chimeric peptides (150 nM, which was experimentally estimated as minimal concentration required for reliable detection), for 7, 5, 3, 1, and 0 h. Each time point was mixed separately starting from the end of incubation time (7 h) every 2 h, afterwards all time points were loaded into the plate."}, "HLA-DRB1*15:01 [5]": {"target": "T1, HLA-DRB1*15:01", "assay": "Kinetic competition assay with Trx-[pp65]bio in presence of HLA-DM", "assay_type": "binding", "conditions": "HLA-DRB1*15:01 150 nM, HLA-DM 150 nM, Trx-[pp65]bio 150 nM, competitor 0-1 μM", "method": "(§1) In a competition assay, kinetic experiments were carried out as described above. Kinetics were measured in the presence of increasing concentrations (0, 30, 100, 300, and 1,000 nM) of thioredoxin-fused HA, pp65, MBP, or chimeric peptides at timepoints 8, 6, 4, 2, and 0 h. Thioredoxin without any peptide was used as a control. ELISA was performed as done previously. All experiments were carried out in triplicates."}, "HLA-DRB1*01:01 [6]": {"target": "T2, HLA-DRB1*01:01", "assay": "Real-time ELISA kinetics of peptide loading (CLIP exchange) with or without HLA-DM", "assay_type": "binding", "conditions": "thioredoxin-fused chimeric peptides with C-terminal part of MBP151-164 or MBP88-100, 150 nM, HLA-DR 150 nM, with or without HLA-DM 150 nM"}, "HLA-DRB1*01:01 [7]": {"target": "T2, HLA-DRB1*01:01", "assay": "Kinetic competition assay with Trx-[HA]bio in presence of HLA-DM", "assay_type": "binding", "conditions": "HLA-DRB1*01:01 150 nM, HLA-DM 150 nM, Trx-[HA]bio 150 nM, competitor 0-1 μM, 0-8 h", "method": "as §1"}, "HLA-DR1": {"test_system": "HLA-DR1", "conditions": "direct binding to purified molecules; cited from earlier work", "excerpt": "(§2) MS therapeutic glatiramer acetate (GA) or Copaxone is a 40–100 amino acids polypeptide of a random sequence composed from alanine, lysine, glutamate, and tyrosine at a molar ratio of 4.5:3.6:1.5:1, respectively, that with high affinity binds directly to the purified HLA-DR1, -DR2, and -DR4 molecules ([45]). Combinatorial chemistry, which lays in the basis of GA, may result in assembling of multiple HLA class II epitopes, that at least in part may be not simply thermodynamically but rather kinetically preferable. Concluding our data provide novel vector of optimization of altered peptide ligand ..."}, "HLA-DR4": {"test_system": "HLA-DR4", "conditions": "direct binding to purified molecules; cited from earlier work", "excerpt": "as §2"}, "HLA-DR2": {"test_system": "HLA-DR2", "conditions": "direct binding to purified molecules; cited from earlier work", "excerpt": "as §2"}}, "note": "No end group written: not given here."}
{"substance": "MBP25−54: thioredoxin-fused MBP fragment of the MBP epitope library (ARHGFLPRHRDTGILDSIGRFFGGDRGAPK; not fully specified (N-terminus); also: fused to thioredoxin via (SGGGG)3S linker at N-terminus, His-tag, position not given here, biotinylated with Sulfo-NHS-LC-biotin, site not given here)", "values": [{"measurement": "Binding of MBP epitope library to HLA-DRB1*15:01", "setting": "HLA-DRB1*15:01 [1]", "result": "significantly diminished efficiency"}]}
{"substance": "MBP65−92: thioredoxin-fused MBP fragment of the MBP epitope library ({thioredoxin-(SGGGG)3S}-ARTAHYGSLPQKSHGRTQDENPVVHFFK; also: biotin (EZ-Link Sulfo-NHS-LC-biotin), places not given here, His-tag, end not given here)", "values": [{"measurement": "Binding of MBP epitope library to HLA-DRB1*01:01", "setting": "HLA-DRB1*01:01 [2]", "result": "less efficiently bound"}]}
{"substance": "MBP130−156: thioredoxin-fused MBP fragment of the MBP epitope library (GRASDYKSAHKGFKGVDAQGTLSKIFK; not fully specified (N-terminus); also: fused to thioredoxin via (SGGGG)3S linker at N-terminus, His-tag, position not given here, biotinylated with Sulfo-NHS-LC-biotin, site not given here)", "values": [{"measurement": "Binding of MBP epitope library to HLA-DRB1*15:01", "setting": "HLA-DRB1*15:01 [1]", "result": "significantly diminished efficiency"}, {"measurement": "Binding of MBP epitope library to HLA-DRB1*01:01", "setting": "HLA-DRB1*01:01 [2]", "result": "less efficiently bound"}]}
{"substance": "Trx-[MBP85−97]: thioredoxin-fused MBP85−97 (NPVVHFFKNIVTP; not fully specified (N-terminus); also: fused to thioredoxin via (SGGGG)3S linker at N-terminus, His-tag, position not given here, biotinylated with Sulfo-NHS-LC-biotin, site not given here)", "values": [{"measurement": "Thermodynamic inhibition capacity in comparison with Trx-[pp65] and Trx-[pp65-MBP91-97]", "setting": "HLA-DRB1*15:01 [3]", "result": "up to half of order of magnitude greater"}, {"measurement": "Rate of loading on HLA-DRB1*15:01 with or without HLA-DM", "setting": "HLA-DRB1*15:01 [4]", "result": "similarly high rate"}, {"measurement": "Concentration from which binding of Trx-[pp65]bio was decreased", "setting": "HLA-DRB1*15:01 [5]", "result": 100, "unit": "nM"}]}
{"substance": "Trx-[MBP88−100]: thioredoxin-fused MBP88−100 ({thioredoxin-(SGGGG)3S}-VHFFKNIVTPRTP; also: biotin (EZ-Link Sulfo-NHS-LC-biotin), places not given here, His-tag, end not given here)", "values": [{"measurement": "Capable of efficiently binding HLA-DRB1*01:01 (kinetic assay)", "setting": "HLA-DRB1*01:01 [6]", "result": "none"}]}
{"substance": "Trx-[MBP151−164]: thioredoxin-fused MBP151−164 ({thioredoxin-(SGGGG)3S}-LSKIFKLGGRDSRS; also: biotin (EZ-Link Sulfo-NHS-LC-biotin), places not given here, His-tag, end not given here)", "values": [{"measurement": "Concentration up to which the peptide failed to compete with Trx-[HA]bio", "setting": "HLA-DRB1*01:01 [7]", "result": "> 1", "unit": "µM"}, {"measurement": "Capable of efficiently binding HLA-DRB1*01:01 (kinetic assay)", "setting": "HLA-DRB1*01:01 [6]", "result": "none"}]}
{"substance": "glatiramer acetate", "values": [{"measurement": "Binding to purified HLA-DR1", "setting": "HLA-DR1", "result": "high affinity"}, {"measurement": "Binding to purified HLA-DR4", "setting": "HLA-DR4", "result": "high affinity"}, {"measurement": "Binding to purified HLA-DR2", "setting": "HLA-DR2", "result": "high affinity"}]}
